Biological target: T1, GST-hElk-L cytoplasmic domain fusion protein (GST-Elk-L cyt) (UniProt P98172)
T1 sequence: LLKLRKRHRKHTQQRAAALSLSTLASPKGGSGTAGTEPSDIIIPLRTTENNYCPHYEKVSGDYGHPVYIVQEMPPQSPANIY

For v-Src, which “in vitro kinase assay with 32P-gamma-ATP, autoradiography” value is on record?
Its value is “A GST fusion protein containing the cytoplasmic domain of human Elk-L (residues 262-343) was tyrosine phosphorylated by v-Src in vitro”.
